Assay results reported in patent publication US20090191228A1.

Assays:
[1] = molecular target: nOVA (non-treated ovalbumin, 1 mg/ml in PBS) (chicken) (UniProt P01012); assay: ELISA, immobilized OVA forms, Fn F4-5 in solution; normalized to nOVA
[2] = molecular target: dH5-I (cdH5-0 misfolded by heat cycling at pH 7) (influenza virus H5N1 strain A/Vietnam/1203/04); assay: ELISA, immobilized H5 forms, Fn F4-5 in solution; normalized to cdH5-0
[3] = molecular target: fdH5-0 (ultrafiltrated dH5-0, flow-through of a 1,000 kDa cut-off filter) (influenza virus H5N1 strain A/Vietnam/1203/04); assay: as above
[4] = molecular target: cdH5-0 (dH5-0 supernatant after 10 min at 16,000-18,000*g) (influenza virus H5N1 strain A/Vietnam/1203/04); assay: as above
[5] = molecular target: dH5-III (cdH5-0 incubated about 16 h at 47.5 C) (influenza virus H5N1 strain A/Vietnam/1203/04); assay: as above
[6] = molecular target: dH5-II (cdH5-0 misfolded by heat cycling at pH 2) (influenza virus H5N1 strain A/Vietnam/1203/04); assay: as above
[7] = molecular target: dOVA-1 (ovalbumin misfolded by HCl treatment, 40 min 37 C, neutralized) (chicken) (UniProt P01012); assay: ELISA, immobilized OVA forms
[8] = molecular target: fdH5-0 (ultrafiltrated dH5-0, flow-through of a 1,000 kDa cut-off filter) (influenza virus H5N1 strain A/Vietnam/1203/04)
[9] = molecular target: cdH5-0 (dH5-0 supernatant after 10 min at 16,000-18,000*g) (influenza virus H5N1 strain A/Vietnam/1203/04)
[10] = molecular target: dH5-II (cdH5-0 misfolded by heat cycling at pH 2) (influenza virus H5N1 strain A/Vietnam/1203/04)

## fourth and fifth finger domain of fibronectin (Fn F4-5) (from UniProt P02751 183-275)
[1]
  Normalized affinity, kD (%): 100%
[2]
  Normalized affinity, kD (%): 0%
[3]
  Normalized affinity, kD (%): 69%
[4]
  Normalized affinity, kD (%): 100%
[5]
  Normalized affinity, kD (%): 6%
[6]
  Normalized affinity, kD (%): 88%

## monoclonal anti-OVA IgG (A6075, Sigma) (antibody)
[7]
  Scaled antibody binding (relative affinity kD, a.u.): 20.8 a.u.

## tissue type plasminogen activator (tPA) (from UniProt P00750 36-562) (enzyme)
[8]
  Bmax: 0.37
  Kd: 342 nM
[9]
  Bmax: 0.36
  Kd: 102 nM
[10]
  Bmax: 0.07
  Kd: 19 nM
